Measurements published in US20230212319A1, “NOVEL ANTIGEN BINDING DOMAINS AND SYNTHETIC ANTIGEN RECEPTORS INCORPORATING THE SAME” (University of Southern California, priority 2020, published 2023).

Test system: LNCaP cells
Test: JNG assay, co-culture with LNCaP cells
Format: cell-based
Conditions: for NFAT-GFP ASSAY: LNCaP: co-culture with LNCaP
Procedure: Cellular supernatant is collected and assayed for the induction of cytokines (e.g., IL2).
JNG (Jurkat cells expressing EGFP under an NFAT promoter) were infected with lentiviral vectors encoding different single chain and multi-chain SARs by spinfection in the presence of 8 µg/ml of Polybrene® (Sigma, Catalog no. H9268). The Jurkat-NFAT-GFP cells are engineered in such a way that the IL-2 promoter, which carries NFAT binding sites, is cloned upstream of the GFP gene. These cells have been used to study signaling via TCR and CAR. The different SARs were stably expressed in Jurkat NFAT-GFP cells by lentiviral mediated gene transfer, followed by selection with puromycin or blasticidin. No drug selection was used in case the construct lacked an antibiotic resistance gene. The SAR-expressing Jurkat-NFAT-GFP cells were cocultured with the target cells at E:T ratio of approximately 1:2 for approximately 4 hours to 18 hours. When the interaction between SIRs and their target antigen results in activation of the NFAT pathway, GFP expression is induced. […] GFP expression was monitored by FACS analysis. The Jurkat-NFAT-GFP (parental) cells were used as control. The structure of different constructs can be determined based on their names. For example, the construct CD8SP-CD19-hu-mROO5-1-vL-[hTCRa-C SDVP]-F-F2A-Spe-IgHSP-Apa-CD20-vHH-2HCD25-G4S-CDl9-hu-mROO5-1-vH-Mlu-[hTCRb-KACIAH]-F-P2A-PAC has the following modules from 5′ to 3′ direction: a CD8 signal peptide (CD8SP), the CD19 targeting hu-mROO5-1 vL fragment (CD19-hu-mROO5-1), Xho1 cloning site, human TCRa constant chain containing CSDVP mutations (hTCRa-CSDVP), Furine cleavage site (F), F2A ribosomal skip sequence (F2A), SpeI site, human IgH signal peptide (IgHSP), Apa I restriction enzyme site, camelid CD20-2HCD25-VHH module targeting CD20, BamHI restriction enzyme site, Glycinex4-serine linker (G4S), BstI restriction enzyme site, CD19-hu-mROO5-1-vH fragment targeting CD19, Mlu I restriction enzyme site, human TCRb constant chain containing KACIAH mutations ([hTCRb-KACIAH]), Furine cleavage site (F), P2A ribosomal skip sequence and Puromycin resistance gene (PAC). The sequence of the other constructs in the table can be similarly determined from their names and by referring to the different Tables of this disclosure that provide the names and SEQ ID NO of the different modules. Alternatively, the composition and modular architecture of the different SAR constructs can be determined from their sequences by bioinformatics tools, including using nucleic acid and amino acids homology searches. A SAR is considered positive in the assay in case the SAR expressing Jurkat-NFAT-GFP cells show greater % GFP positive cells when cultured with the target cell line as compared to parental Jurkat-NFAT-GFP cells. The signs +/-, +, 2+ etc. after the name of the cell lines indicate the relative degree of positivity on the Jurkat-NFAT-GFP assay as measured by the % GFP positive cells after culture of the SAR expressing Jurkat-NFAT-GFP cells with that cell line above the % GFP cells observed in parental Jurkat NFAT-GFP cells serving as controls. In general, the number +/-, +, 2+, 3+, 4+, 5+ refer to approximately 5%, 10%, 20%, 30%, 40% and 50% GFP positive cells. The % of GFP induction in the above assay is dependent not only the relative strength of the SAR but also, among other factors, on the relative level of expression of the SAR in the JNG cells and the relative level of expression of the target antigen in the target cell line. To control for the difference in gene transduction efficiency of the different SAR constructs, the experiment was conducted with JNG cells transduced with SAR constructs co-expressing a drug resistance gene (e.g., puromycin or PAC) followed by drug selection to generate a stable population of SAR-expressing cells. […]

Row | Molecule | NFAT-GFP ASSAY: LNCaP | GFP induction (LNCaP cells, only in the presence of SAR-adaptor PSMA-USC76-chVH-G4S-ULBP2-S3 (SEQ ID NO: 23114))
1 | 22053 (protein) MALPVTALLLPLALLLHAARPQLQLQESGPGLVKPSETLSLTCTVSGDSISSGDYYWGWIRQPPGKGLEWIGHIYYSGVTYYNPSLKSRVTISVDTSRNQFSLKLSSVTAADTAVYYCTREDSSNWRSRGQGTLVTVSSLEDKTHTCPPCPAPIKTDVITMDPKDNCSKDANDTLLLQLTNTSAYYMYLLLLLKSVVYFAIITCCLLRRTAFCCNGEKSRAKRSGSGATNFSLLKQAGDVEENPGPTSMDWIWRILFLVGAATGAHSFEVQLVESGGGVVQPGRSLRLSCAASGFSFSGYGMHWVRQAPGKGLEWVAYISYDGSNKYYADSVKGRFTISRDNSKNTLYLQMNSLRAEDTAVYYCAKDPAWGLRLGESSSYDFDIWGQGTMVTVSSTRDKTHTCPPCPAIPEDTFFPSPESSCDVKLVEKSFETDTNLNFQNLSVIGFRILLLKVAGFNLLMTLRLWSSRAKRSGSGVKQTLNFDLLKLAGDVESNPGPSRGHMTEYKPTVRLATRDDVPRAVRTLAAAFADYPATRHTVDPDRHIERVTELQELFLTRVGLDIGKVWVADDGAAVAVWTTPESVEAGAVFAEIGPRMAELSGSRLAAQQQMEGLLAPHRPKEPAWFLATVGVSPDHQGKGLGSAVVLPGVEAAERAGVPAFLETSAPRNLPFYERLGFTVTADVEVPEGPRTWCMTRKPGA | + (refer to approximately 5%, 10%, 20%, 30%, 40% and 50% GFP positive cells) | –
2 | 22045 (protein) MALPVTALLLPLALLLHAARPQLQLQESGPGLVKPSETLSLTCTVSGDSISSGDYYWGWIRQPPGKGLEWIGHIYYSGVTYYNPSLKSRVTISVDTSRNQFSLKLSSVTAADTAVYYCTREDSSNWRSRGQGTLVTVSSLEGSPIKTDVITMDPKDNCSKDANDTLLLQLTNTSAYYMYLLLLLKSVVYFAIITCCLLRRTAFCCNGEKSRAKRSGSGATNFSLLKQAGDVEENPGPTSMDWIWRILFLVGAATGAHSFEVQLVESGGGVVQPGRSLRLSCAASGFSFSGYGMHWVRQAPGKGLEWVAYISYDGSNKYYADSVKGRFTISRDNSKNTLYLQMNSLRAEDTAVYYCAKDPAWGLRLGESSSYDFDIWGQGTMVTVSSTRDKTHTCPPCPAIPEDTFFPSPESSCDVKLVEKSFETDTNLNFQNLSVIGFRILLLKVAGFNLLMTLRLWSSRAKRSGSGVKQTLNFDLLKLAGDVESNPGPSRGHMTEYKPTVRLATRDDVPRAVRTLAAAFADYPATRHTVDPDRHIERVTELQELFLTRVGLDIGKVWVADDGAAVAVWTTPESVEAGAVFAEIGPRMAELSGSRLAAQQQMEGLLAPHRPKEPAWFLATVGVSPDHQGKGLGSAVVLPGVEAAERAGVPAFLETSAPRNLPFYERLGFTVTADVEVPEGPRTWCMTRKPGA | +/- (refer to approximately 5%, 10%, 20%, 30%, 40% and 50% GFP positive cells) | –
3 | SEQ ID NO: 22289: NKG2D-YA fused directly to TCRb constant chain without an Ig linker (protein) MALPVTALLLPLALLLHAARPACLFNQEVQIPLTESYCGPCPKNWICYKNNCYQFFDESKNWYESQASCMSQNASLLKVYSKEDQDLLKLVKSAHWMGLVHIPTNGSWQWEDGSILSPNLLTIIEMQKGDCALYASSFKGYIENCSTPNTYICMQRTVLEDLKNVFPPEVAVFEPSEAEISHTQKATLVCLATGFYPDHVELSWWVNGKEVHSGVCTDPQPLKEQPALNDSRYCLSSRLRVSATFWQNPRNHFRCQVQFYGLSENDEWTQDRAKPVTQIVSAEAWGRADCGFTSESYQQGVLSATILYEILLGKATLYAVLVSALVLMAMVKRKDSRGRAKRSGSGATNFSLLKQAGDVEENPGPTSMDWIWRILFLVGAATGAHSFEDLFNQEVQIPLTESYCGPCPKNWICYKNNCYQFFDESKNWYESQASCMSQNASLLKVYSKEDQDLLKLVKSAHWMGLVHIPTNGSWQWEDGSILSPNLLTIIEMQKGDCALYASSFKGFIENCSTPNTYICMQRTVTRIQNPDPAVYQLRDSKSSDKSVCLFTDFDSQTNVSQSKDSDVYITDKCVLDMRSMDFKSNSAVAWSNKSDFACANAFNNSIIPEDTFFPSPESSCDVKLVEKSFETDTNLNFQNLSVIGFRILLLKVAGFNLLMTLRLWSSRAKRSGSGVKQTLNFDLLKLAGDVESNPGPSRGHMTEYKPTVRLATRDDVPRAVRTLAAAFADYPATRHTVDPDRHIERVTELQELFLTRVGLDIGKVWVADDGAAVAVWTTPESVEAGAVFAEIGPRMAELSGSRLAAQQQMEGLLAPHRPKEPAWFLATVGVSPDHQGKGLGSAVVLPGVEAAERAGVPAFLETSAPRNLPFYERLGFTVTADVEVPEGPRTWCMTRKPGA | – | failed to show GFP induction
4 | 22044 (protein) MALPVTALLLPLALLLHAARPQLQLQESGPGLVKPSETLSLTCTVSGDSISSGDYYWGWIRQPPGKGLEWIGHIYYSGVTYYNPSLKSRVTISVDTSRNQFSLKLSSVTAADTAVYYCTREDSSNWRSRGQGTLVTVSSLEGSMDPKDNCSKDANDTLLLQLTNTSAYYMYLLLLLKSVVYFAIITCCLLRRTAFCCNGEKSRAKRSGSGATNFSLLKQAGDVEENPGPTSMDWIWRILFLVGAATGAHSFEVQLVESGGGVVQPGRSLRLSCAASGFSFSGYGMHWVRQAPGKGLEWVAYISYDGSNKYYADSVKGRFTISRDNSKNTLYLQMNSLRAEDTAVYYCAKDPAWGLRLGESSSYDFDIWGQGTMVTVSSTRDKTHTCPPCPAIPEDTFFPSPESSCDVKLVEKSFETDTNLNFQNLSVIGFRILLLKVAGFNLLMTLRLWSSRAKRSGSGVKQTLNFDLLKLAGDVESNPGPSRGHMTEYKPTVRLATRDDVPRAVRTLAAAFADYPATRHTVDPDRHIERVTELQELFLTRVGLDIGKVWVADDGAAVAVWTTPESVEAGAVFAEIGPRMAELSGSRLAAQQQMEGLLAPHRPKEPAWFLATVGVSPDHQGKGLGSAVVLPGVEAAERAGVPAFLETSAPRNLPFYERLGFTVTADVEVPEGPRTWCMTRKPGA | +/- (refer to approximately 5%, 10%, 20%, 30%, 40% and 50% GFP positive cells) | –
5 | 22042 (protein) MALPVTALLLPLALLLHAARPQLQLQESGPGLVKPSETLSLTCTVSGDSISSGDYYWGWIRQPPGKGLEWIGHIYYSGVTYYNPSLKSRVTISVDTSRNQFSLKLSSVTAADTAVYYCTREDSSNWRSRGQGTLVTVSSLEGSADCGFTSESYQQGVLSATILYEILLGKATLYAVLVSALVLMAMVKRKDSRGRAKRSGSGATNFSLLKQAGDVEENPGPTSMDWIWRILFLVGAATGAHSFEVQLVESGGGVVQPGRSLRLSCAASGFSFSGYGMHWVRQAPGKGLEWVAYISYDGSNKYYADSVKGRFTISRDNSKNTLYLQMNSLRAEDTAVYYCAKDPAWGLRLGESSSYDFDIWGQGTMVTVSSTRDKTHTCPPCPAIPEDTFFPSPESSCDVKLVEKSFETDTNLNFQNLSVIGFRILLLKVAGFNLLMTLRLWSSRAKRSGSGVKQTLNFDLLKLAGDVESNPGPSRGHMTEYKPTVRLATRDDVPRAVRTLAAAFADYPATRHTVDPDRHIERVTELQELFLTRVGLDIGKVWVADDGAAVAVWTTPESVEAGAVFAEIGPRMAELSGSRLAAQQQMEGLLAPHRPKEPAWFLATVGVSPDHQGKGLGSAVVLPGVEAAERAGVPAFLETSAPRNLPFYERLGFTVTADVEVPEGPRTWCMTRKPGA | +/- (refer to approximately 5%, 10%, 20%, 30%, 40% and 50% GFP positive cells) | –
